We go through five proteins from publication PMC2782731.

Substrate in data set [1]: CC1=C(/C=C/C(C)=C/C=C/C(C)=C/C=O)C(C)(C)CCC1
As to the kind of experiment: HPLC of retinol formed, microsomes of Sf9 cells. It is filed as biochemical, Drosophila melanogaster. Particulars: apparent; 1 mM NADPH; BSA-solubilized substrate; ambient temperature; reduction.

Substrate in data set [2]: CC1=C(/C=C/C(C)=C/C=C/C(C)=C/C=O)C(C)(C)CC(O)C1
As to the kind of experiment: HPLC of 3-hydroxyretinol formed, microsomes of Sf9 cells. Particulars: apparent; 1 mM NADPH; BSA-solubilized substrate; ambient temperature; reduction. Type of data set: biochemical, Drosophila melanogaster.

B1: CG2065 (Drosophila melanogaster) (protein)
chain: MQGGQFTKQTDETGKVFIVTGANTGIGKETVLEIAKRGGTVYMACRDMNRCEKARQDIIRETNNQNIFSRELDLSSLESIRKFAAGFKKEQDKLHVLINNAGVMHCPRTLTKDGFEMQLGVNHMGHFLLTHLLLDVLKKTAPSRIVNVSSLVHTQGFIKTADLNSEKSYSRIGAYSQSKLANVLFTRELAKRLEGTGVTTNSLHPGAVDTELSRNWKFLKHPFAQLLLKPLLWVLFKTPRNGAQTTLYAALDPALKDVSGLYFSDCQPKEVSAAAQDDKTGKFLWAESEKWTGVNSTKVD
Turning to B1, in data set [1], the Km (commonly the concentration of substrate that gives half-maximal velocity) was 0.7 ± 0.1 µM and the Vmax (in general, the top rate of the reaction or transport when substrate is in excess) worked out at 0.0016 µmol/min/mg. In data set [2], the Michaelis constant (Km) was found to be 4.4 ± 0.6 µM and the maximum rate (Vmax) is 0.001 µmol/min/mg.

B2: CG2070 (Drosophila melanogaster) (protein)
chain: MSAPTDYLFCPLAYGSALSAIGIYLLRQYMQGGQFTTKTNETGRVAIVTGCNQGIGKETVLELARRGATVYMACRDMKKCENARREIIKATNNQNIFARQLDLCSMKSIRNFAAGFKREQNKLHILINNAGIMDCPKMLTEDGFEMQIGVNHMGHFLLTLLLLDVLKSSAPSRVVVLSSIAHRFGRIKRDDLNSEKSYDRKMAYCQSKLANVLFTRELAKRLSGTGVTVNALHPGVVNTELFRNTPFLGSWFGKLLIAPIIWIFIKTARNGAQTTLYAALDPSLEKVSGRYFSDCKQKHVGSAAQYDDDAQFLWAESEKWTGINI
On to B2, for which, in data set [1], the Michaelis constant (Km) was 0.4 ± 0.1 µM and the Vmax is 0.021 µmol/min/mg.

B3: CG30491 (Drosophila melanogaster) (protein)
chain: MSLFAFLKSRTAFWLSFTGTTTGLAFFVKDLMQGGQFTKETNETGKVFIVTGANTGIGKETVREIAKRGGTVYMACRNLKKCEEAREEIVLETKNKYVYCRQCDLASQESIRHFVAAFKREQEHLHVLINNAGVMRCPRSLTSDGIELQLGVNHMGHFLLTNLLLDLLKKSSPSRIVNVSSLAHTRGEINTGDLNSDKSYDEGKAYSQSKLANVLFTRELAKRLEGTNVTANALHPGVVDTEIIRHMGFFNNFFAGLFVKPLFWPFVKTPRNGAQTSLYVALDPELEKVTGQYFSDCKLKEMAPAATDTQTAKWLWAVSEKWTKPTMIKIQ
Regarding B3, the figures for the Michaelis-Menten constant (Km) in data set [1] and in data set [2] were 0.6 ± 0.1 µM and 3.2 ± 0.3 µM, respectively. The Vmax in data set [2] came to 0.029 µmol/min/mg.

B4: CG2064 (Drosophila melanogaster) (protein)
chain: MCIFIDCLLSPLIMWPATIGVGIYFLKEYMQGGKFTKDTDETGKVFIVTGANTGIGKETALEIARRGGTVYLACRDMNRCEKARKDIIKETNNQNIFSRELDLSSLDSIRKFVDGFKKEQPKLHVLINNAGVMRCPKTLTKDGYELQLGVNHIGHFLLTNLLLDVLKNSAPSRIVVVSSLAHARGSINVADLNSEKSYDEGLAYSQSKLANVLFTRELAKRLEGSGVTVNALHPGVVDTELARNWAFFQTNLVKFFLKPMIWPLLKTPKSGAQTSIYAALDPELKNISGLYFSDCKPKPVASGALDDKVAKFLWAESEKWTGLDKLEANN
With B4, in data set [1], the Michaelis constant (Km) came out at 4.2 ± 1.2 µM and the Vmax was 0.0016 µmol/min/mg. In data set [2], the Michaelis constant (Km) stood at 2.7 ± 0.9 µM and the Vmax turned out to be 0.00045 µmol/min/mg.

B5: CG3842 (Drosophila melanogaster) (protein)
chain: MSEAATPPGSVPGTVFPPGFDPTAESVEKTLCFRGFWAWAVLIFLIVLGILLFMWLLRKCIQGPAYRKANRIDGKVVIVTGCNTGIGKETVLELAKRGARVYMACRDPGRCEAARLDIMDRSRNQQLFNRTLDLGSLQSVRNFVERFKAEESRLDILINNAGVMACPRTLTADGFEQQFGVNHLGHFLLTNLLLDRLKHSSPSRIVVVSSAAHLFGRINREDLMSEKNYSKFFGAYSQSKLANILFTLKLSTILKDTGVTVNCCHPGVVRTEINRHFSGPGWMKTALQKGSLYFFKTPKAGAQTQLRLALDPQLEGSTGGYYSDCMRWPLFPWVRNMQTADWLWRESEKLLGLPPLEPPPPVQSPTQNGNGTQNGNGSSSASASASSNNPASREMQSVETVVVNRS
On to B5, for which, in data set [1], the Km was found to be 0.27 ± 0.05 µM and the Vmax was 0.007 µmol/min/mg. Further, in data set [2], the Michaelis-Menten constant (Km) was determined as 4.1 ± 0.1 µM and the maximal velocity (Vmax) came out at 0.025 µmol/min/mg.
